Measured values taken from patent publication US20120276019.

Columns and labels:
[1] = molecular target: recombinant α-synuclein, full length (1-140 AA) (rPeptide) (UniProt P37840)
[2] = molecular target: recombinant α-synuclein 1-95 (1-95 AA) (GenWay Biotech) (UniProt P37840)

Chain of porcine pancreas derived KLK1 (chain, as listed by the source): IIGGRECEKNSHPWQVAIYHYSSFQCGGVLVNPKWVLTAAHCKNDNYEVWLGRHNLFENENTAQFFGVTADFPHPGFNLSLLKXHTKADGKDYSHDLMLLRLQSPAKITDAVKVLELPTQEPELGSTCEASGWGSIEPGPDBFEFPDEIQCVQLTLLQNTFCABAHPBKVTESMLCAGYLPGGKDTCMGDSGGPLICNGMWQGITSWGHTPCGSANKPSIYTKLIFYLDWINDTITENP

porcine pancreas derived KLK1
degradation (cleavage) of α-synuclein, Western blot after 24 hours at 37° C., 100 nM KLK1 + 2.5 µM α-synuclein [1]: After 24 hours of treatment, all detectable α-synuclein was degraded by KLK1 | degradation (cleavage) of α-synuclein 1-95, Western blot after 3 hours at 37° C., 1 mM KLK1 + 250 µg/ml α-synuclein 1-95 [2]: After 3 hours of treatment, all detectable α-synuclein 1-95 was degraded by KLK1
